Data published in paper PMC10629583, “Specific inhibition of an anticancer target, polo-like kinase 1, by allosterically dismantling its mechanism of substrate recognition” (Proceedings of the National Academy of Sciences of the …, 2023).
[ ]: non-standard residue; d: D form. The star is where a group is joined. FITC = O=C1OC2(c3ccc(O)cc3Oc3cc(O)ccc32)c2ccc(NC(=S)*)cc21; pT = C[C@@H](OP(=O)(O)O)[C@H](N)C(=O)O; Ahx = NCCCCCC(=O)O

Tests used:
Details in all cases: both partners purified
[1] = biological target: T1, Plk1 polo-box domain, PBD1 (residues 345–603) WT (human, UniProt P53350 345-603); test: fluorescence polarisation; direct binding: FITC-Ahx-DPPLHSpTAI-NH2 with different concentrations of recombinant PBD1 WT or mutants
T1 construct: Polo-like kinase 1 (Plk1), polo-box domain, residues 345-603; TEV-PBD1 fragment in pET-Duet-1; A TEV site precedes PBD1 in the insert; also called PBD1 WT; Plk1 PBD; source: E. coli (purified as described for the crystallography construct, Rosetta strain)

[2] = biological target: T2, PBD1 (residues 345–603) F559R (human, UniProt P53350 345-603, F559R); test: fluorescence polarisation; inhibition assay: FITC-conjugated ligand (15 nM) mixed with PBD at its EC85 concentration, competitor varied; read about 30 min after reaction, 384-well format
T2 construct: Polo-like kinase 1 (Plk1), polo-box domain, residues 345-603, F559R; also called F559R mutant; source: E. coli (purified as described for the crystallography construct, Rosetta strain)

[3] = biological target: T3, PBD1 (residues 345–603) F559E (human, UniProt P53350 345-603, F559E); test: as above
T3 construct: Polo-like kinase 1 (Plk1), polo-box domain, residues 345-603, F559E; also called F559E mutant; source: E. coli (purified as described for the crystallography construct, Rosetta strain)

[4] = biological target: T4, PBD1 (residues 345–603) F559D (human, UniProt P53350 345-603, F559D); test: as above
T4 construct: Polo-like kinase 1 (Plk1), polo-box domain, residues 345-603, F559D; also called F559D mutant protein; source: E. coli (purified as described for the crystallography construct, Rosetta strain)

[5] = biological target: T5, PBD1 (residues 345–603) F559K (human, UniProt P53350 345-603, F559K); test: as above
T5 construct: Polo-like kinase 1 (Plk1), polo-box domain, residues 345-603, F559K; also called F559K mutant; source: E. coli (purified as described for the crystallography construct, Rosetta strain)

Measured: binding result

T2 sequence (P53350 345-603 F559R): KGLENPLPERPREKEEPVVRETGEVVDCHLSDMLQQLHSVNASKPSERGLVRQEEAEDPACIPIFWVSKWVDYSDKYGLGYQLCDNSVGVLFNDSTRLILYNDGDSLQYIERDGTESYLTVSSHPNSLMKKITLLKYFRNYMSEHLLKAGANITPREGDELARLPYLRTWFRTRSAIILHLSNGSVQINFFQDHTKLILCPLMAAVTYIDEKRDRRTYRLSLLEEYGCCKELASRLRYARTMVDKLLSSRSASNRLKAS
T4 sequence (P53350 345-603 F559D): as the sequence (P53350 345-603 F559R) above, with R215D counted along it
T1 sequence (P53350 345-603): as the sequence (P53350 345-603 F559R) above, with R215F counted along it
T3 sequence (P53350 345-603 F559E): as the sequence (P53350 345-603 F559R) above, with R215E counted along it
T5 sequence (P53350 345-603 F559K): as the sequence (P53350 345-603 F559R) above, with R215K counted along it

B1: FITC-Ahx-DPPLHSpTAI-NH2 (peptide)
peptide: {FITC-Ahx}-DPPLHS[pT]AI-NH2
SMILES: CC[C@H](C)[C@H](NC(=O)[C@H](C)NC(=O)[C@@H](NC(=O)[C@H](CO)NC(=O)[C@H](Cc1c[nH]cn1)NC(=O)[C@H](CC(C)C)NC(=O)[C@@H]1CCCN1C(=O)[C@@H]1CCCN1C(=O)[C@H](CC(=O)O)NC(=O)CCCCCNC(=S)Nc1ccc2c(c1)C(=O)OC21c2ccc(O)cc2Oc2cc(O)ccc21)[C@@H](C)OP(=O)(O)O)C(N)=O
notes: also called FITC-conjugated phosphopeptide; FITC-conjugated ligand
binds: [1] | [2] | [3] | [4] | [5]
